These results are taken from the supplement of paper PMC9112550, “Optimization of the antimicrobial peptide Bac7 by deep mutational scanning” (BMC Biology, 2022).
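Note: peptides expressed intracellularly from a pBAD plasmid library in pooled LB shake-flask culture, induced with 0.3% L-arabinose, DNA abundance read by NGS, three biological replicates, DESeq2 with apeglm shrinkage.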

The series deals with Escherichia coli TOP10. Nature of the series: shrunken log2 fold change of peptide-encoding DNA abundance (4.5 h post-induction vs induction); higher = less antimicrobial activity (less host growth inhibition). The settings on record: time post-induction: 4.5 h; library: site-saturation at positions 5, 18, 19, 20.
For the sequence RRIRNRPPRLPRPRPRPSCSPRP, the “shrunken log2 fold change” value is -0.384.
Consider RRIRPRPPRLPRPRPRPQTHPRP, for which the “shrunken log2 fold change” value is -0.272.
Take RRIRHRPPRLPRPRPRPEQYPRP: the “shrunken log2 fold change” value was -0.224.
Consider RRIRVRPPRLPRPRPRPKRNPRP, for which the “shrunken log2 fold change” value was 0.166.
The figure for RRIRYRPPRLPRPRPRPDQTPRP is 0.00902.
For RRIRVRPPRLPRPRPRPICKPRP, the “shrunken log2 fold change” value is -0.149.
Turning to RRIRPRPPRLPRPRPRPKHTPRP, the “shrunken log2 fold change” value was -0.198.
As for RRIRMRPPRLPRPRPRPFLSPRP, the figure is -0.0215; as for RRIRYRPPRLPRPRPRPACVPRP, -0.351.
As for RRIRSRPPRLPRPRPRPICKPRP, the figure is -0.494.
In the case of RRIRCRPPRLPRPRPRPKRRPRP, the “shrunken log2 fold change” value was 0.0984.
The figure for RRIRVRPPRLPRPRPRPCSNPRP is -0.411; for RRIRSRPPRLPRPRPRPMVKPRP it is -0.0162.
As for RRIRYRPPRLPRPRPRPERCPRP, the figure is -0.12.
As for RRIRARPPRLPRPRPRPKKIPRP, the figure is 0.489.
As to RRIRCRPPRLPRPRPRPGERPRP, the “shrunken log2 fold change” value was found to be 0.01.
As to RRIRLRPPRLPRPRPRPPSHPRP, the “shrunken log2 fold change” value came out at 0.0809.
As for RRIRTRPPRLPRPRPRPNLIPRP, the figure is -0.408; as for RRIRKRPPRLPRPRPRPMRSPRP, 0.638.
The figure for RRIRLRPPRLPRPRPRPCYHPRP is -0.569; for RRIRCRPPRLPRPRPRPLDGPRP it is -0.151.
As for RRIRWRPPRLPRPRPRPPTEPRP, the figure is 0.597; as for RRIRNRPPRLPRPRPRPLAQPRP, 0.0157.
Take RRIRDRPPRLPRPRPRPHNYPRP: the “shrunken log2 fold change” value is -0.423.
As for RRIRHRPPRLPRPRPRPHWGPRP, the figure is -0.123.
For the sequence RRIRQRPPRLPRPRPRPQVKPRP, the “shrunken log2 fold change” value was -0.101.
The figure for RRIRRRPPRLPRPRPRPCDDPRP is -0.0703.
As for RRIRHRPPRLPRPRPRPCVSPRP, the figure is -0.311; as for RRIRDRPPRLPRPRPRPKPGPRP, 0.654; as for RRIRMRPPRLPRPRPRPCMHPRP, 0.14.
As for RRIRHRPPRLPRPRPRPEYTPRP, the figure is -0.0512; as for RRIRRRPPRLPRPRPRPATLPRP, 0.332; as for RRIRFRPPRLPRPRPRPTYFPRP, -0.175.
As to RRIRRRPPRLPRPRPRPTIQPRP, the “shrunken log2 fold change” value was 0.144.
As for RRIRERPPRLPRPRPRPYYMPRP, the figure is -0.785.
The figure for RRIRQRPPRLPRPRPRPIAKPRP is -0.00229.
For RRIRDRPPRLPRPRPRPRCHPRP, the “shrunken log2 fold change” value was -0.0835.
With RRIRHRPPRLPRPRPRPLEKPRP, the “shrunken log2 fold change” value is -0.1.
As for RRIRVRPPRLPRPRPRPAKIPRP, the figure is 0.117; as for RRIRSRPPRLPRPRPRPKQWPRP, 0.474.
As for RRIRIRPPRLPRPRPRPQSNPRP, the figure is -0.197; as for RRIRHRPPRLPRPRPRPCMNPRP, -0.0607; as for RRIRFRPPRLPRPRPRPWLQPRP, -0.163.
The figure for RRIRSRPPRLPRPRPRPSGAPRP is 0.12; for RRIRSRPPRLPRPRPRPTMPPRP it is 0.0349.
As for RRIRERPPRLPRPRPRPENNPRP, the “shrunken log2 fold change” value was -0.27.
The figure for RRIRTRPPRLPRPRPRPKLWPRP is 0.401.
The figure for RRIRIRPPRLPRPRPRPEAGPRP is -0.17.
As for RRIRYRPPRLPRPRPRPAWEPRP, the figure is 1.86.
In the case of RRIRARPPRLPRPRPRPHCEPRP, the “shrunken log2 fold change” value is -0.113.
The figure for RRIRPRPPRLPRPRPRPVSRPRP is 0.0925.
As for RRIRWRPPRLPRPRPRPRHSPRP, the figure is 0.286; as for RRIRYRPPRLPRPRPRPWGYPRP, -0.0919; as for RRIRQRPPRLPRPRPRPTGSPRP, -0.0708.
As for RRIRVRPPRLPRPRPRPSEMPRP, the figure is 0.0713; as for RRIRQRPPRLPRPRPRPYQQPRP, -0.0082; as for RRIRVRPPRLPRPRPRPQEWPRP, -0.0187.
As for RRIRVRPPRLPRPRPRPYVQPRP, the “shrunken log2 fold change” value is -0.918.
As for RRIRQRPPRLPRPRPRPRIHPRP, the figure is -0.234.
The figure for RRIRLRPPRLPRPRPRPNDLPRP is -0.00842.
As for RRIRLRPPRLPRPRPRPTDDPRP, the figure is -0.0495.
Regarding RRIRHRPPRLPRPRPRPNNPPRP, the “shrunken log2 fold change” value is -0.874.
The figure for RRIRIRPPRLPRPRPRPFYPPRP is -0.776.
As for RRIRYRPPRLPRPRPRPQIYPRP, the figure is -0.132; as for RRIRVRPPRLPRPRPRPLEIPRP, -0.073; as for RRIRERPPRLPRPRPRPSKTPRP, -0.0833.
The figure for RRIRRRPPRLPRPRPRPGHFPRP is -0.204; for RRIRGRPPRLPRPRPRPRTGPRP it is 0.617.
Consider RRIRLRPPRLPRPRPRPVMPPRP, for which the “shrunken log2 fold change” value was -0.29.
The figure for RRIRMRPPRLPRPRPRPYPAPRP is -0.246; for RRIRLRPPRLPRPRPRPVLGPRP it is 0.192; for RRIRPRPPRLPRPRPRPIHMPRP it is -0.23.
Take RRIRHRPPRLPRPRPRPSDLPRP: the “shrunken log2 fold change” value was -0.441.
The figure for RRIRFRPPRLPRPRPRPTGHPRP is -0.287.
The figure for RRIRQRPPRLPRPRPRPPIHPRP is -0.0767; for RRIRCRPPRLPRPRPRPESSPRP it is -0.16.
The figure for RRIRARPPRLPRPRPRPNAMPRP is 0.272; for RRIRNRPPRLPRPRPRPMNHPRP it is 0.0515.
Consider RRIRCRPPRLPRPRPRPLKNPRP, for which the “shrunken log2 fold change” value was -0.208.
The figure for RRIRNRPPRLPRPRPRPGMRPRP is 0.504; for RRIRNRPPRLPRPRPRPPYWPRP it is 0.0294.
The figure for RRIRLRPPRLPRPRPRPPCTPRP is 0.036; for RRIRLRPPRLPRPRPRPDFWPRP it is 0.484; for RRIRIRPPRLPRPRPRPWSKPRP it is -0.0876.
As for RRIRGRPPRLPRPRPRPKDEPRP, the figure is 0.696; as for RRIRKRPPRLPRPRPRPYMEPRP, -0.0534; as for RRIRARPPRLPRPRPRPPKDPRP, 1.78.
For the sequence RRIRERPPRLPRPRPRPRAWPRP, the “shrunken log2 fold change” value was found to be 0.195.
Consider RRIRSRPPRLPRPRPRPYANPRP, for which the “shrunken log2 fold change” value was -0.185.
With RRIRLRPPRLPRPRPRPKEVPRP, the “shrunken log2 fold change” value was -0.147.
The figure for RRIRWRPPRLPRPRPRPVHWPRP is 0.138.
As for RRIRKRPPRLPRPRPRPVWFPRP, the figure is 0.142; as for RRIRMRPPRLPRPRPRPVAQPRP, 0.963.
As for RRIRWRPPRLPRPRPRPRTSPRP, the “shrunken log2 fold change” value is -0.0212.
For RRIRVRPPRLPRPRPRPRHFPRP, the “shrunken log2 fold change” value is 0.13.
As for RRIRDRPPRLPRPRPRPAWKPRP, the figure is 0.0693.
As for RRIRYRPPRLPRPRPRPIFRPRP, the figure is -0.258.
As for RRIRNRPPRLPRPRPRPRMIPRP, the figure is 0.0468; as for RRIRFRPPRLPRPRPRPLTLPRP, -0.337; as for RRIRERPPRLPRPRPRPNYYPRP, -0.893.
As for RRIRCRPPRLPRPRPRPLAGPRP, the “shrunken log2 fold change” value stood at 0.153.
The figure for RRIRCRPPRLPRPRPRPKKEPRP is 0.00726; for RRIRMRPPRLPRPRPRPCLDPRP it is -0.273.
The figure for RRIRHRPPRLPRPRPRPYIEPRP is -0.68.
Take RRIRPRPPRLPRPRPRPYSSPRP: the “shrunken log2 fold change” value was -0.282.
As for RRIRWRPPRLPRPRPRPCWGPRP, the figure is -0.122.
As for RRIRGRPPRLPRPRPRPNYKPRP, the figure is 0.211; as for RRIRWRPPRLPRPRPRPYMEPRP, -0.101.
For the sequence RRIRERPPRLPRPRPRPCQCPRP, the “shrunken log2 fold change” value was -0.0543.
The figure for RRIRHRPPRLPRPRPRPAQTPRP is -0.1.
As for RRIRTRPPRLPRPRPRPLTMPRP, the figure is -0.27; as for RRIRYRPPRLPRPRPRPNNLPRP, -0.582.
RRIRIRPPRLPRPRPRPKHQPRP: the “shrunken log2 fold change” value is -0.495.
As for RRIRMRPPRLPRPRPRPGDPPRP, the figure is 1.09.
As for RRIRHRPPRLPRPRPRPMDAPRP, the figure is 0.00875.
As for RRIRCRPPRLPRPRPRPPNHPRP, the figure is -0.104; as for RRIRERPPRLPRPRPRPETSPRP, 0.122.
As for RRIRMRPPRLPRPRPRPTNVPRP, the “shrunken log2 fold change” value is -0.0668.
The figure for RRIRPRPPRLPRPRPRPYTTPRP is -0.52.
The figure for RRIRIRPPRLPRPRPRPMDLPRP is -1.16; for RRIRWRPPRLPRPRPRPFSMPRP it is -0.0921.
The figure for RRIRNRPPRLPRPRPRPFFPPRP is -0.122.
As for RRIRNRPPRLPRPRPRPNWMPRP, the “shrunken log2 fold change” value is -0.199.
The figure for RRIRFRPPRLPRPRPRPICGPRP is 0.0198; for RRIRMRPPRLPRPRPRPGDTPRP it is 0.064.
